Results on two molecules are retold here after patent US20240317884A1, “METHOD FOR ALLOWING IMMUNE CELLS INFILTRATION IN TUMORS” (Alethia Biotherapeutics Inc., priority 2021, published 2024).

The test system of experiment [1] is 4T1 mouse mammary carcinoma cells. In words: 4T1 model: count of metastatic lung nodules. In kind it is in vivo, Balb/c mice. Conditions: Balb/c, treatment for 5 weeks (docetaxel 10 mg/kg IP 1X/week; AB-16B5 10 mg/kg IP 2X/week), vs saline control. The protocol:
(§1) Five groups, each consisting of 10 female Balb/c mice were assigned to this study (see Table 5 below). All animals received subcutaneous implantation of 4T1 mouse mammary carcinoma cells in the 4th inguinal mammary gland. Treatment was initiated on the day of implantation (defined as Day 1). Animals from Group 1 (Gr. 1) received IP treatment of saline vehicle control twice a week for the duration of the study. Animals from Group 2 (Gr. 2) received 10 mg/kg of docetaxel weekly for five weeks by IP administration. Animals from Group 3 (Gr. 3) received 10 mg/kg of docetaxel weekly for two weeks and 10 mg/kg of AB-16B5, twice weekly for five weeks. Animals from Group 4 (Gr. 4) received 10 mg/kg of docetaxel weekly and 5 mg/kg of 16B5 twice weekly each over the course of a five weeks treatment. Animals from Group 5 (Gr. 5) received AB-16B5 twice weekly for five weeks. On Day 36, the primary tumors were excised and on Day 37, the animals were sacrificed and the number of grossly visible metastatic nodules on the surface of the lungs was counted.

The next experiment has as its system 4T1 primary tumors. In words: 4T1 model: CD45+ immune cells in primary tumors. Type of experiment: in vivo, Balb/c mice. To be noted: Balb/c, 5-week regimens (Groups 2, 4, 5), primary tumors excised at Day 16. The procedure:
as §1
The primary tumors excised at Day 16 post implantation, were processed with collagenase and hyaluronidase and immune cells were purified by positive selection using magnetic latex beads coated with an anti-CD45 antibody. […]

The next experiment has as its system 4T1 tumor cells. As to the kind of experiment: INFγ secretion of tumor infiltrating lymphocyte cultures co-cultured with 4T1 cells (ELISA). Type of experiment: cell-based, Balb/c mice. Conditions: 100,000 lymphocytes from lung metastatic nodules with 100,000 4T1 cells overnight, individual animals, AB-16B5 10 mg/kg IP twice weekly ± docetaxel 10 mg/kg IP weekly. The protocol: Balb/c mice were orthotopically implanted with 5×10^5 4T1 cells in the 4th mammary fat pad. Animals received intraperitoneal (IP) AB-16B5 (murine 16B5) 10 mg/kg twice weekly in combination with IP docetaxel 10 mg/kg weekly (Group 15: animals 1501, 1502 and 1503) or IP AB-16B5 10 mg/kg twice weekly (Group 25: […]). The primary tumor was surgically removed at Day 16 post-implantation. The animals were sacrificed at Day 36 and the lungs were excised and each visible lung metastasis was carefully dissected. Each visible metastatic nodule, if any, was excised and processed for a rapid expansion of tumor infiltrating lymphocyte protocol. The metastatic nodules were sectioned into small pieces of 2-3 mm edge that were individually grown in 24 well plates containing culture medium supplemented with FBS, IL2, IL7, ITS (1,000 U/mL IL2, 2.0 ng/mL IL7 and 1× insulin-transferrin-selenium cocktail (Gibco 41400-045)).
After three weeks in culture, 100,000 cells were taken from each of the lymphocyte cultures (six cultures corresponding to three animals from Group 15 and three animals from Group 25) and placed in culture with 100,000 4T1 tumor cells. After overnight co-culture, the supernatant was recovered for INFγ quantification by ELISA.
On the technique in general: An ELISA detects its analyte on a solid surface through an enzyme-linked reagent.

A further experiment deals with 4T1 lung metastases. In words: 4T1 model: immunohistochemistry of lung metastases. Type of experiment: in vivo. To be noted: Balb/c mice, orthotopic 4T1; 10 mg/kg IP thrice a week; Day 36. The source says:
Balb/c mice were orthotopically implanted with 5×10^5 4T1 cells in the 4th mammary fat pad. Animals received IP saline treatment thrice weekly. The primary tumor was surgically removed at Day 16 post-implantation. The animals were sacrificed at Day 36 and the lungs were excised. Tissues were fixed in paraformaldehyde and processed for paraffin embedding. Tissue sections were probed with anti-mouse CD3, anti-mouse CD8 and anti-mouse B220 antibodies. […] Results presented in FIG. 1 indicate that the 4T1 lung metastases create an immune cold microenvironment which prevents the infiltration of B and T lymphocytes in tumors. Delineated regions indicate that CD3 and CD8 T lymphocytes are restricted in the tumor margin as a consequence of EMT.
Animals bearing 4T1 tumors were treated with the AB-16B5 antibody (murine 16B5) thrice a week IP at 10 mg/kg. The primary tumor was surgically removed at Day 16 post-implantation. The animals were sacrificed at Day 36 and the lungs were excised. Tissues were fixed in paraformaldehyde and processed for paraffin embedding. Tissue sections were probed with anti-mouse CD3, anti-mouse CD8 and anti-mouse B220 antibodies.

“And” between values parts separate entries of the source, which are not always exact repeats. Identical values can stand only once. “Also recorded” adds a separate entry of the source.

As for `CC(=O)O[C@@]12CO[C@@H]1C[C@H](O)[C@@]1(C)C(=O)[C@H](O)C3=C(C)[C@@H](OC(=O)[C@H](O)[C@@H](NC(=O)OC(C)(C)C)c4ccccc4)C[C@@](O)([C@@H](OC(=O)c4ccccc4)[C@H]21)C3(C)C` [docetaxel], the “metastatic lung nodules / therapeutic effect on lung metastases” value in experiment [1] is “as many metastatic lung nodules as the saline control group; also recorded: relatively ineffective”. In addition, in the experiment with 4T1 primary tumors, the “CD45+ immune cells in primary tumors” value is “very few CD45+”.

B1: murine 16B5: murine anti-clusterin 16B5 antibody used in mouse studies; VL SEQ ID NO:7, VH SEQ ID NO:8 (antibody, V domains shown)
VH: EVQLQQSGAELVKPGASVRLSCTTSGFNIKDIYMHWVKQRPEQGLEWIGRIDPAYGNTKYDPKFQGKATITADTSSNTAYLQLSSLTSEDTAVYYCARRYDTAMDYWGQGTSVTVSS
VL: DIVMSQSPSSLAVSAGEKVTMSCKSSQSLLNSRTRKNYLAWYQQKPGQSPKLLIYWASTRESGVPDRFTGSGSGTDFTLTISSVQAEDLAVYYCKQSYNLWTFGGGTKLEFK
modifications: Murine 16B5 VH; Murine 16B5 VL
On to B1, for which the INFγ with 4T1 tumor cells was 8538.8 pg/mL and 3770.0 pg/mL and 4538.8 pg/mL. Also, in experiment [1], the “metastatic lung nodules / therapeutic effect on lung metastases” value is listed as “less metastatic lung nodules”. For the same molecule, in the experiment on 4T1 lung metastases, the “infiltration of lung metastases with T cells” value is “densely infiltrated with CD3 and CD8 T cells”; the “lung metastases (number and size)” value is “fewer and much smaller lung metastases”; the “plasmocytes penetration in tumors” value is on record as “evidence of plasmocytes penetration”. The “CD45+ immune cells in primary tumors” value in the experiment on 4T1 primary tumors is given as “more immune cells”.
